In the supplement of paper PMC11246515:
± gives the standard deviation of the averaged measurements.

Experiment: total protein half-life in vivo (active degradation + dilution); higher = more stable protein
[1] = E. coli NCM3722 delta-clpP delta-lon delta-hslV, growth: N-lim chemostat, doubling time 6 h
[2] = E. coli NCM3722 delta-clpP, growth: N-lim chemostat, doubling time 6 h
[3] = E. coli NCM3722 delta-hslV, growth: N-lim chemostat, doubling time 6 h
[4] = E. coli NCM3722 delta-lon, growth: N-lim chemostat, doubling time 6 h
[5] = E. coli NCM3722 delta-smpB, growth: N-lim chemostat, doubling time 6 h
[6] = wild type E. coli NCM3722, growth: C-lim chemostat, doubling time 6 h
[7] = wild type E. coli NCM3722, growth: C-lim chemostat, doubling time 12 h
[8] = wild type E. coli NCM3722, growth: N-lim chemostat, doubling time 6 h
[9] = wild type E. coli NCM3722, growth: N-lim chemostat, doubling time 12 h
[10] = wild type E. coli NCM3722, growth: P-lim chemostat, doubling time 6 h
[11] = wild type E. coli NCM3722, growth: P-lim chemostat, doubling time 12 h
[12] = wild type E. coli NCM3722, growth: C-lim chemostat, doubling time 3 h

MQTKKNEIWVGIFLLAALLAALFVCLKAANVTSIRTEPTYTLYATFDNIGGLKARSPVSIGGVVVGRVADITLDPKTYLPRVTLEIEQRYNHIPDTSSLSIRTSGLLGEQYLALNVGFEDPELGTAILKDGDTIQDTKSAMVLEDLIGQFLYGSKGDDNKNSGDAPAAAPGNNETTEPVGTTK
total protein half-life in vivo [1]: 6.04 ± 0.2 h | total protein half-life in vivo [2]: 6.2952 ± 0.0017 h | total protein half-life in vivo [3]: 5.73 ± 1.1 h | total protein half-life in vivo [4]: 6.27 ± 0.51 h | total protein half-life in vivo [5]: 6.07 ± 0.14 h | total protein half-life in vivo [6]: 5.612 ± 0.038 h | total protein half-life in vivo [7]: 12.5 ± 1.4 h | total protein half-life in vivo [8]: 6.08 ± 0.09 h | total protein half-life in vivo [9]: 13.6 ± 1.8 h | total protein half-life in vivo [10]: 5.72 ± 0.45 h | total protein half-life in vivo [11]: 13.7 ± 0.79 h

MQTPHILIVEDELVTRNTLKSIFEAEGYDVFEATDGAEMHQILSEYDINLVIMDINLPGKNGLLLARELREQANVALMFLTGRDNEVDKILGLEIGADDYITKPFNPRELTIRARNLLSRTMNLGTVSEERRSVESYKFNGWELDINSRSLIGPDGEQYKLPRSEFRAMLHFCENPGKIQSRAELLKKMTGRELKPHDRTVDVTIRRIRKHFESTPDTPEIIATIHGEGYRFCGDLED [P0A9Q1]
total protein half-life in vivo [1]: 5.53 ± 0.35 h | total protein half-life in vivo [2]: 5.61 ± 1 h | total protein half-life in vivo [3]: 4.95 ± 0.086 h | total protein half-life in vivo [4]: 5.76 ± 0.36 h | total protein half-life in vivo [5]: 4.87 ± 0.05 h | total protein half-life in vivo [12]: 2.73 ± 0.069 h | total protein half-life in vivo [6]: 5.78 ± 0.19 h | total protein half-life in vivo [7]: 9.44 ± 1.7 h | total protein half-life in vivo [8]: 4.76 ± 0.39 h | total protein half-life in vivo [9]: 8.14 ± 0.24 h | total protein half-life in vivo [10]: 5.18 ± 0.058 h | total protein half-life in vivo [11]: 10.3 ± 0.2 h

MQTQKPTLELLTCEGAYRDNPTALFHQLCGDRPATLLLESADIDSKDDLKSLLLVDSALRITALGDTVTIQALSGNGEALLALLDNALPAGVESEQSPNCRVLRFPPVSPLLDEDARLCSLSVFDAFRLLQNLLNVPKEEREAMFFGGLFSYDLVAGFEDLPQLSAENNCPDFCFYLAETLMVIDHQKKSTRIQASLFAPNEEEKQRLTARLNELRQQLTEAAPPLPVVSVPHMRCECNQSDEEFGGVVRLLQKAIRAGEIFQVVPSRRFSLPCPSPLAAYYVLKKSNPSPYMFFMQDNDFTLFGASPESSLKYDATSRQIEIYPIAGTRPRGRRADGSLDRDLDSRIELEMRTDHKELSEHLMLVDLARNDLARICTPGSRYVADLTKVDRYSYVMHLVSRVVGELRHDLDALHAYRACMNMGTLSGAPKVRAMQLIAEAEGRRRGSYGGAVGYFTAHGDLDTCIVIRSALVENGIATVQAGAGVVLDSVPQSEADETRNKARAVLRAIATAHHAQETF
total protein half-life in vivo [1]: 4.74 ± 0.93 h | total protein half-life in vivo [2]: 3.4 ± 0.18 h | total protein half-life in vivo [3]: 3.1 ± 0.083 h | total protein half-life in vivo [4]: 3.6 ± 0.24 h | total protein half-life in vivo [5]: 3.3 ± 0.17 h | total protein half-life in vivo [12]: 2.93 ± 0.52 h | total protein half-life in vivo [6]: 5.7 ± 0.12 h | total protein half-life in vivo [7]: 9.57 ± 0.22 h | total protein half-life in vivo [8]: 3.25 ± 0.13 h | total protein half-life in vivo [9]: 5.08 ± 0.34 h | total protein half-life in vivo [10]: 6.71 ± 0.33 h | total protein half-life in vivo [11]: 10.7 ± 1.7 h

MQTQLTEEMRQNARALEADSILRACVHCGFCTATCPTYQLLGDELDGPRGRIYLIKQVLEGNEVTLKTQEHLDRCLTCRNCETTCPSGVRYHNLLDIGRDIVEQKVKRPLPERILREGLRQVVPRPAVFRALTQVGLVLRPFLPEQVRAKLPAETVKAKPRPPLRHKRRVLMLEGCAQPTLSPNTNAATARVLDRLGISVMPANEAGCCGAVDYHLNAQEKGLARARNNIDAWWPAIEAGAEAILQTASGCGAFVKEYGQMLKNDALYADKARQVSELAVDLVELLREEPLEKLAIRGDKKLAFHCPCTLQHAQKLNGEVEKVLLRLGFTLTDVPDSHLCCGSAGTYALTHPDLARQLRDNKMNALESGKPEMIVTANIGCQTHLASAGRTSVRHWIEIVEQALEKE
total protein half-life in vivo [3]: 1.54 h | total protein half-life in vivo [4]: 2.63 ± 0.16 h | total protein half-life in vivo [5]: 1.29 ± 0.16 h | total protein half-life in vivo [12]: 1.33 ± 0.28 h | total protein half-life in vivo [6]: 2.42 ± 0.12 h | total protein half-life in vivo [7]: 4.17 ± 0.18 h | total protein half-life in vivo [9]: 2.2136 ± 0.00075 h | total protein half-life in vivo [10]: 2.14 h | total protein half-life in vivo [11]: 4.65 ± 0.33 h

MQTTQQNAPLKRTMKTRHLIMLSLGGVIGTGLFFNTGYIISTTGAAGTLLAYLIGALVVWLVMQCLGELSVAMPETGAFHVYAARYLGPATGYTVAWLYWLTWTVALGSSFTAAGFCMQYWFPQVPVWVWCVVFCAIIFGLNVISTRFFAEGEFWFSLVKVVTIIAFIILGGAAIFGFIPMQDGSPAPGLSNITAEGWFPHGGLPILMTMVAVNFAFSGTELIGIAAGETENPRKVIPVAIRTTIARLIIFFIGTVFVLAALIPMQQVGVEKSPFVLVFEKVGIPYAADIFNFVILTAILSAANSGLYASGRMLWSLSNERTLPACFARVTKNGVPLTALSVSMLGGVLALFSSVVAPDTVFVALSAISGFAVVAVWLSICASHFVFRRRHLQQGKALSELHYRAPWYPLVPVLGFVLCLVACVGLAFDPAQRIALWCGLPFVALCYGAYFLTQPRNAKQEPEHVAE
total protein half-life in vivo [1]: 3.09 ± 0.25 h | total protein half-life in vivo [2]: 1.78 h | total protein half-life in vivo [3]: 3.13 h | total protein half-life in vivo [5]: 2.51 ± 0.28 h | total protein half-life in vivo [12]: 3.05 ± 0.71 h | total protein half-life in vivo [6]: 4.13 ± 0.25 h | total protein half-life in vivo [7]: 7.02 ± 0.5 h | total protein half-life in vivo [8]: 3.79 h | total protein half-life in vivo [10]: 3.63 ± 0.43 h | total protein half-life in vivo [11]: 7.23 h

MQTVIFGRSGCPYCVRAKDLAEKLSNERDDFQYQYVDIRAEGITKEDLQQKAGKPVETVPQIFVDQQHIGGYTDFAAWVKENLDA
total protein half-life in vivo [1]: 5.87 h | total protein half-life in vivo [2]: 3.94 h | total protein half-life in vivo [3]: 3.72 h | total protein half-life in vivo [4]: 4.75 ± 0.46 h | total protein half-life in vivo [5]: 3.33 h | total protein half-life in vivo [12]: 2.14 h | total protein half-life in vivo [6]: 4.99 h | total protein half-life in vivo [7]: 6.22 h | total protein half-life in vivo [8]: 3.39 h | total protein half-life in vivo [9]: 5.49 h | total protein half-life in vivo [10]: 4.16 h | total protein half-life in vivo [11]: 7.26 ± 0.75 h

MQVDLLGSAQSAHALHLFHQHSPLVHCMTNDVVQTFTANTLLALGASPAMVIETEEASQFAAIASALLINVGTLTQPRAQAMRAAVEQAKSSQTPWTLDPVAVGALDYRRHFCHELLSFKPAAIRGNASEIMALAGIANGGRGVDTTDAAANAIPAAQTLARETGAIVVVTGEMDYVTDGHRIIGIHGGDPLMTKVVGTGCALSAVVAACCALPGDTLENVASACHWMKQAGERAVARSEGPGSFVPHFLDALWQLTQEVQA
total protein half-life in vivo [1]: 4.08 ± 0.34 h | total protein half-life in vivo [2]: 3.41 ± 0.17 h | total protein half-life in vivo [3]: 3.27 ± 0.13 h | total protein half-life in vivo [4]: 3.94 h | total protein half-life in vivo [5]: 3.42 ± 0.044 h | total protein half-life in vivo [12]: 3.01 ± 0.68 h | total protein half-life in vivo [6]: 4.89 ± 1.2 h | total protein half-life in vivo [7]: 8.48 ± 1 h | total protein half-life in vivo [8]: 3.4 ± 0.41 h | total protein half-life in vivo [9]: 5.17 ± 0.24 h | total protein half-life in vivo [10]: 5.64 ± 0.14 h | total protein half-life in vivo [11]: 10.3 ± 0.67 h
